Earlier results as cited in publication PMC2900478.

Target: GABARAP (Homo sapiens) (UniProt O95166)
UniProt O95166, sequence (O95166 1-116): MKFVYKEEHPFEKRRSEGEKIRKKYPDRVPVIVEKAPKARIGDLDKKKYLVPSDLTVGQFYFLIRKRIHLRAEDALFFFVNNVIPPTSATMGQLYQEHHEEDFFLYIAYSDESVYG

- Kd: 100 µM
Substance: Nix (from UniProt O60238)
